Literature values as cited in PMC4739856.
Values joined by “and” are separate entries in the source; they are usually repeats but may differ in a detail not shown here. Equal entries are not always repeated. Where two headings read alike, the source gives them in different places.

Legend:
[1] = target: T1, His12 (UniProt position 38, KFERQHMDSST); test: NMR; settings: apo (ligand-free) RNase A
[2] = target: T2, His119 (UniProt position 145, PYVPVHFDASV); test: NMR; settings: apo (ligand-free) RNase A
[3] = target: T1, His12
[4] = target: T2, His119

For “Ribonuclease A (RNase A, pancreatic ribonuclease) (Bos taurus)”, the pKa [1] is listed as 5.87 and 6.18, the pKa [2] is listed as 6.03 and 6.34 and the pKa ([3]; apo (ligand-free) RNase A) is listed as 5.8. The pKa ([3]; complex with 3'-CMP) was 8.0, the pKa ([4]; apo (ligand-free) RNase A) was 6.2 and the pKa ([4]; complex with 3'-CMP) was 7.4.
